B1: Azoarcus group I ribozyme (parent)
chain: GUGCCUUGCGCCGGGAAACCACGCAAGGGAUGGUGUCAAAUUCGGCGAAACCUAAGCGCCCGCCCGGGCGUAUGGCAACGCCGAGCCAAGCUUCGGCGCCUGCGCCGAUGAAGGUGUAGAGACUAGACGGCACCCACCUAAGGCAAACGCUAUGGUGAAGGCAUAGUCCAGGGAGUGGCGAAAGUCACACAAACCGG

Variants of: B1
Assay: reverse-splicing fitness (ratio to wild type); higher = more active; in vitro selection; Mg2+ level not given
Method in brief: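 An in vitro group I ribozyme library with randomized positions was T7-transcribed and gel-purified. In triplicate, 10 pmol RNA in EPPS pH 7.5 was reacted with 50 pmoles of a 30-nt RNA substrate for 1 h at 37 °C across several added MgCl2 levels (1–48 mM), then stopped with EDTA. Products were reverse transcribed from a substrate-complementary primer, PCR-amplified and sequenced (HiSeq 4000). Fitness is a variant's read proportion after selection over that before, normalised to wild type.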
C82U A111U A120U A145G C150G C169A gave a reverse-splicing fitness of 0.00819.
C82U A111U A120U A145U C169G U176A showed a reverse-splicing fitness of 0.00244.
C82U A111U A120U A145U C169G U176G gave a reverse-splicing fitness of 0.00176.
For C82U A111U A120U A145U C169G U176C, the reverse-splicing fitness was 0.00286.
In the case of C82U A111U A120U A145C C169A, the reverse-splicing fitness is reported as 0.00225.
Work on C82U A111U A120U A145C C169U yielded a reverse-splicing fitness of 0.00314.
Work on C82U A111U A120U A145C C169G yielded a reverse-splicing fitness of 0.00316.
Work on C82U A111U A120U A145C C150A C169A U176G yielded a reverse-splicing fitness of 0.00264.
For C82U A111U A120U A145C C150A C169A U176A, the reverse-splicing fitness was 0.00203.
For C82U A111U A120U A145C C150A C169A U176C, the reverse-splicing fitness was 0.00217.
For C82U A111U A120U A145G C150A C169G U176G, the reverse-splicing fitness was 0.00241.
Variant C82U A111U A120U A145G C150A C169G U176A has a reverse-splicing fitness of 0.00789.
C82U A111U A120U A145G C150A C169G U176C showed a reverse-splicing fitness of 0.0045.
With C82U A111U A120U A145U C169A U176C the reverse-splicing fitness was 0.00301.
For C82U A111U A120U A145U C169A U176A, the reverse-splicing fitness was 0.00233.
In the case of C82U A111U A120U A145U C169A U176G, the reverse-splicing fitness is reported as 0.0017.
For C82U A111U A120U A145U U176C, the reverse-splicing fitness was 0.0111.
With C82U A111U A120U A145U U176A the reverse-splicing fitness was 0.00758.
C82U A111U A120U A145U U176G gave a reverse-splicing fitness of 0.00339.
In the case of C82U A111U A120G A145U C169A, the reverse-splicing fitness is reported as 0.00696.
For C82U A111U A120G A145U C169U, the reverse-splicing fitness was 0.00798.
In the case of C82U A111U A120G A145U C169G, the reverse-splicing fitness is reported as 0.00838.
For C82U A111U A120U, the reverse-splicing fitness was 0.0242.
Variant C82U A111U A120G A145U C169G U176A has a reverse-splicing fitness of 0.0111.
Work on C82U A111U A120G A145U C169G U176C yielded a reverse-splicing fitness of 0.0121.
Variant C82U A111U A120G A145U C169G U176G has a reverse-splicing fitness of 0.00402.
Work on C82U A111U A120U A145U C150G C169A yielded a reverse-splicing fitness of 0.0034.
In the case of C82U A111U A120U A145U C150G C169U, the reverse-splicing fitness is reported as 0.00272.
Variant C82U A111U A120U A145U C150G C169G has a reverse-splicing fitness of 0.00274.
C82U A111U A120G C150G C169U U176C gave a reverse-splicing fitness of 0.0119.
C82U A111U A120G C150G C169U U176A showed a reverse-splicing fitness of 0.0122.
For C82U A111U A120G C150G C169U U176G, the reverse-splicing fitness was 0.00556.
C82U A111U A120U A145G C169U U176G gave a reverse-splicing fitness of 0.00207.
With C82U A111U A120U A145G C169U U176A the reverse-splicing fitness was 0.00304.
C82U A111U A120U A145G C169U U176C showed a reverse-splicing fitness of 0.00323.
For C82U A111U A120U A145C C150A C169U U176A, the reverse-splicing fitness was 0.0025.
Variant C82U A111U A120U A145C C150A C169U U176C has a reverse-splicing fitness of 0.00269.
Work on C82U A111U A120U A145C C150A C169U U176G yielded a reverse-splicing fitness of 0.00213.
C82U A111U A120U A145C C150U C169U showed a reverse-splicing fitness of 0.00288.
With C82U A111U A120U A145C C150U C169G the reverse-splicing fitness was 0.00276.
C82U A111U A120U A145C C150U C169A showed a reverse-splicing fitness of 0.0022.
Work on C82U A111U A120U C150A C169G U176G yielded a reverse-splicing fitness of 0.0026.
With C82U A111U A120U C150A C169G U176A the reverse-splicing fitness was 0.00758.
Variant C82U A111U A120U C150A C169G U176C has a reverse-splicing fitness of 0.00448.
With C82U A111U A120G C150A C169G the reverse-splicing fitness was 0.0098.
In the case of C82U A111U A120G C150A C169A, the reverse-splicing fitness is reported as 0.0103.
With C82U A111U A120G C150A C169U the reverse-splicing fitness was 0.00823.
For C82U A111U A120U A145C C150A C169G, the reverse-splicing fitness was 0.00215.
C82U A111U A120U A145C C150A C169U showed a reverse-splicing fitness of 0.00254.
C82U A111U A120U A145C C150A C169A gave a reverse-splicing fitness of 0.00214.
In the case of C82U A111U A120G A145U C169U U176C, the reverse-splicing fitness is reported as 0.0132.
Work on C82U A111U A120G A145U C169U U176G yielded a reverse-splicing fitness of 0.0035.
Variant C82U A111U A120G A145U C169U U176A has a reverse-splicing fitness of 0.0203.
Variant C82U A111U A120U A145U C150G U176G has a reverse-splicing fitness of 0.00226.
C82U A111U A120U A145U C150G U176C showed a reverse-splicing fitness of 0.0047.
In the case of C82U A111U A120U A145U C150G U176A, the reverse-splicing fitness is reported as 0.00312.
Variant C82U A111U A120G C169G U176A has a reverse-splicing fitness of 0.0203.
C82U A111U A120G C169G U176G gave a reverse-splicing fitness of 0.00437.
C82U A111U A120G C169G U176C gave a reverse-splicing fitness of 0.0225.
C82U A111U A120G C150A C169A U176A showed a reverse-splicing fitness of 0.0189.
C82U A111U A120G C150A C169A U176G gave a reverse-splicing fitness of 0.00561.
Work on C82U A111U A120G C150A C169A U176C yielded a reverse-splicing fitness of 0.0173.
With C82U A111U A120U A145U C150U C169G the reverse-splicing fitness was 0.00343.
Work on C82U A111U A120U A145U C150U C169A yielded a reverse-splicing fitness of 0.00254.
For C82U A111U A120U A145U C150U C169U, the reverse-splicing fitness was 0.00365.
C82U A111U A120G C169U U176C gave a reverse-splicing fitness of 0.0161.
Variant C82U A111U A120G C169U U176A has a reverse-splicing fitness of 0.0215.
C82U A111U A120G C169U U176G gave a reverse-splicing fitness of 0.00594.
For C82U A111U A120U A145U C150G C169A U176C, the reverse-splicing fitness was 0.00272.
Variant C82U A111U A120U A145U C150G C169A U176G has a reverse-splicing fitness of 0.00213.
In the case of C82U A111U A120U A145U C150G C169A U176A, the reverse-splicing fitness is reported as 0.0028.
C82U A111U A120U A145U C150A C169G U176G gave a reverse-splicing fitness of 0.00192.
C82U A111U A120U A145U C150A C169G U176A gave a reverse-splicing fitness of 0.00311.
Work on C82U A111U A120U A145U C150A C169G U176C yielded a reverse-splicing fitness of 0.00231.
C82U A111U A120G C169A gave a reverse-splicing fitness of 0.00883.
For C82U A111U A120G C169U, the reverse-splicing fitness was 0.0086.
For C82U A111U A120G C169G, the reverse-splicing fitness was 0.01.
C82U A111U A120G C150A showed a reverse-splicing fitness of 0.00947.
For C82U A111U A120G C150U, the reverse-splicing fitness was 0.0114.
C82U A111U A120G C150G gave a reverse-splicing fitness of 0.00696.
For C82U A111U A120U A145C C169U U176A, the reverse-splicing fitness was 0.00247.
For C82U A111U A120U A145C C169U U176G, the reverse-splicing fitness was 0.00177.
Work on C82U A111U A120U A145C C169U U176C yielded a reverse-splicing fitness of 0.0022.

Source: the RNAGym collection of RNA variant scans (doi:10.1093/molbev/msab373)
